Consider 5 molecules from article PMC10755698.

Where two headings read alike, the source gives them in different places.

Assay in all cases: native MS
Series [1] deals with T1, Lassa virus nucleoprotein NP (wild type) (Lassa virus, AV strain, UniProt Q9DQX7).
In series [2] the target is T1, Lassa virus nucleoprotein NP (wild type). The source holds these as a separate data set.
The target is the same in series [3]. This is another data set of the same source.

Turning to GCCUAGGAUCCACUGUGCGUGUUGU (ssRNA) [25 nt RNA], the binding result in series [1] was “binds”.
For ACCAACACACCAACAACAACCUGUGCG (ssRNA) [27 nt RNA], the binding result in series [1] is listed as “binds”.
For the molecule CGGACACACAAAAAGAAA (ssRNA) [18 nt RNA], the binding result in series [2] was “binds”.
Turning to UAGGAAUCU (ssRNA) [9 nt RNA], the binding result in series [3] is “binds”.
As to ACACAAAGACCC (ssRNA) [12 nt RNA], the binding result in series [3] is recorded as “binds”.
